From patent US20090324491A1 (FORERUNNER PHARMA RESEARCH, published 2009)

Key:
[1] = molecular target: T1, soluble human EREG fragment (EGF domain; 63Val to 108Leu) comprising a mature structure, R&D Systems cat. no. … (human, UniProt O14944 63-108); assay: ELISA, EREG fragment immobilized on immuno plate
T1 construct: Bought protein; also called soluble EREG; recombinant human EREG
Description: (§1) The binding towards partial fragments of the extracellular domain of human EREG was analyzed to determine antibody epitope. The N-terminal partial sequence fragment of ²⁹Ala to ⁶⁹Ser of human EREG of SEQ ID NO: 21 was expressed as a GST fusion protein and purified to homogeneity. The sequence of the obtained recombinant protein is shown in SEQ ID NO: 172. A soluble human EREG fragment (EGF domain; corresponding to ⁶³Val to ¹⁰⁸Leu of SEQ ID NO: 21) comprising a mature structure was purchased from R&D Systems (cat. no. 1195-EP/CF). Fragments of the EREG protein were immobilized onto an immuno plate, and the binding of the antibodies was examined by ELISA. Most of the antibodies bound to the soluble EREG fragment that comprises the EGF domain (indicated as “ereg” in Table 3). EP25 and EP32 bound to the N-terminal fragment (“Nterm”). All of the isolated antibodies bound to either one of the peptide fragments, and none of the antibodies recognized the sequence beyond residue 109.

[2] = molecular target: T1, soluble human EREG fragment (EGF …); assay: ELISA, EREG fragment immobilized on immuno plate; note: binds, but with low reactivity
Description: as §1

T1 sequence (O14944 63-108): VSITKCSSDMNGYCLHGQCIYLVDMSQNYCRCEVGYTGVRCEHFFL

| Binder | binding result [1] | binding result [2] |
| --- | --- | --- |
| anti-EREG mouse monoclonal antibody EP29 (B3#41) (antibody, mouse IgG1, V domains shown, Mouse IgG1/κ hybridoma antibody) VH: EVQLQQSGTVLARPGASVKMSCKASGYTFTSYWMHWVKQRPGQGLEWIGAIYPGNSDSYNQKFKGKAKLTAVTSTSTAYMELSSLTNEDSAVYYCTSVMAYWGQGTSVTVSS VL: DIQMTQSPSSLSASLGERVSLTCRASQDIGNSLNWLQQEPDGTIKRLIYATSNLDSGVSKRFSGSRSGSDYSLTISSLESEDFVDYYCLQYASSPWTFGGGTKLEIK |  | binds |
| anti-EREG mouse monoclonal antibody EP20 (B2#30) (antibody, mouse IgG1, V domains shown, Mouse IgG1/κ hybridoma antibody) VH: QVQLQQSGAELVRPGVSVKISCKGSGYTFTVYSLHWVKQSHARSLEWIGVISTYYGDAIYNQKFKGKATMTVDKSSSTAYMELARLTSEDSAIYYCAREGNGNPLDYWGQGTTLTVSS VL: QIVLTQSPAIMSASLGERVTMTCTASSSVSSSYLHWYQQKPGSSPKLWIYSTSNLASGVPARFSGSGSGTSYSLTITNMEAEDSATYYCHQYHRSPLTFGAGTKLELK | binds |  |
| anti-EREG mouse monoclonal antibody EP27 (B3#18) (antibody, mouse IgG2b, V domains shown, also called B3#18_IgG2b) VH: EDQLQQSGAELVKPGASVKLSCTASGFNIKDTYIQWVKLRPEQGLEWIGRIDPLNGNTKYVPKFQGKATITADTSSNTAYLQLSSLTSEDTAVYYCVRSGTLFDFWGQGTTLTVSS VL: DIQMTQSPSSLSASLGGKVTITCKASQDIHKYIAWYQHKPGKGPRLLIQYTSTLQPGIPSRFSGSGSGRDYSFSISNLEPEDIATYYCLQYDNLRTFGGGTKLEIK | binds |  |

Further lines, results first:

| binding result [1] | binding result [2] | Binder |
| --- | --- | --- |
| binds |  | anti-EREG mouse monoclonal antibody EP03 (C7) (antibody, mouse IgG1, V domains shown, Mouse IgG1/κ hybridoma antibody) VH: QVQLQQPGAELVKPGASVKLSCKASGYTFTNYWMNWVKQRPGRGLEWIGRIHPSDSETHYNQKFKNKATLTVDKSSSTAYIQLSSLTSEDSAVYYCANLYYYTMDYWGQGTSVTVSS VL: DIQMTQSPSSLSASLGGKVTITCKASQDINKNIAWHQHKPGKGPRLLIWYTSTLQPGIPSRFSGSGSGRDYSFSISNLEPEDIATYYCLQYDNLPYTFGSGTKLEIK |
| binds |  | anti-EREG mouse monoclonal antibody EP24 (B3#8) (antibody, mouse IgG1, V domains shown, Mouse IgG1/κ hybridoma antibody) VH: QVQLKESGPGLVAPSQSLSITCTVSGFSLSSYGVHWVRQPPGKGLEWLGVIWRDGSTTYNSALKSRLSISKDGSKSQVFLKMNSLQTDDTAMYYCARNWNGLMDYWGQGTSVTVSS VL: DIQMTQTTSSLSASLGDRVTISCRASQDISYYLNWYQQRPDGTVKLLIYYTSRLHSGVPSRFSGSGSGTESSLTISNLEQEDIATYFCQQGHTVPWTFGGGTKLEIK |
| binds |  | anti-EREG mouse monoclonal antibody EP08 (#15) (antibody, mouse IgG1, V domains shown, Mouse IgG1/κ hybridoma antibody) VH: QVQLQQPGAELVKPGASVKLSCKASGYTFTSYWMHWVKQRPGQGLEWIGEINPYNGGTNYNEKFKSKATLTVDKSSSTAYMQLSSLTSEDSAVYYCTIWKLGTYWGQGTLVTVSA VL: DIQMTQSPSSLSASLGERVSLTCRASQEISGYLSWLQQKPDGTIKRLIYAASTLDSGVPKRFSGSRSGSDYSLTISSLESEDFADYYCLQYASYPRTFGGGTKLEIK |
